Reference: patent publication US20120164140A1

What was measured:
Experiment in all cases: cell-based or functional assay
[1] = molecular target: T1, BMP-2 (unlabeled) (UniProt P12643)
T1 sequence (looked up): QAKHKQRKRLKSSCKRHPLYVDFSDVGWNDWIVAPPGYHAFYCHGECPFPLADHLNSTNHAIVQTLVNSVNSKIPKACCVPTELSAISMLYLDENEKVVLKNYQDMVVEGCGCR

[2] = molecular target: T2, BMP-4 (unlabeled) (UniProt P12644)
T2 sequence (looked up): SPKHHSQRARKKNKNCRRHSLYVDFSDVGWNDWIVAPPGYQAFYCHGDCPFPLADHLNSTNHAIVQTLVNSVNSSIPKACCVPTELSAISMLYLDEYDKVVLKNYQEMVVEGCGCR

[3] = molecular target: BMP-6 (UniProt P22004)
[4] = molecular target: BMP-5 (UniProt P22003)

Measured: decrease in hepcidin promoter activation (luciferase reporter, Hep3B cells)

Sequence of UniProt P22004 (P22004 382-513 limits assumed): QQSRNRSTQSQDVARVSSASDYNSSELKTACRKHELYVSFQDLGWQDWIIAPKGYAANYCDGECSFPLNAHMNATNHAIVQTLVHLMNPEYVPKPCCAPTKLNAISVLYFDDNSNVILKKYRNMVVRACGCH
Sequence of UniProt P22003 (P22003 317-454 limits assumed): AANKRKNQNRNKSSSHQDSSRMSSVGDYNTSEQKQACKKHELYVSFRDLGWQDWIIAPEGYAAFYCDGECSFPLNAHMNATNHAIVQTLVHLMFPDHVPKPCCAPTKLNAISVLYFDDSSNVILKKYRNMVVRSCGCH

purified soluble human hemojuvelin fused to the Fc portion of immunoglobulin (HJV.Fc) (Fc fusion)
> 90%: [1] | [2] | [3] | [4]
